From paper PMC3245779

Molecular target: BSG-S variant E92K (Ok(a-) variant) (human)
Assay: SPR

PfRh5 (purified, SPR analyte) (from UniProt Q8IFM5 25-526) (ligand)
fold lower affinity than the BSG reference sequence (equilibrium): 2 fold
